Reference: patent publication US20250101120A1 (BEIJING SOLOBIO GENETECHNOLOGY, published 2025)
Like-named read-outs stand apart in the source and are kept apart here.

T1: hFc-hFasL (fusion protein of human Fc fragment and human FasL extracellular region) (human, UniProt P48023 134-281)
T1 sequence: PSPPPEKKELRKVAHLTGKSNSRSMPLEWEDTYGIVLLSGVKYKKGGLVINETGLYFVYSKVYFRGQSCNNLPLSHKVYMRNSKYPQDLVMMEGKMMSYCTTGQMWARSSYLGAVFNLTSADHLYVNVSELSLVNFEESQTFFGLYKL


Key:
[1] = biological target: hFc-hFasL (fusion protein of human Fc fragment and human FasL extracellular region) (human) (UniProt P48023); assay: cell-based or functional assay
[2] = biological target: hFc-hFasL (fusion protein of human Fc fragment and human FasL extracellular region) (human) (UniProt P48023); assay: ELISA, hFc-hFasL coated, sample titrated (detection for this reference not separately stated)
[3] = biological target: T1, hFc-hFasL (fusion protein of human Fc …); assay: cell-based or functional assay
[4] = biological target: T1, hFc-hFasL (fusion protein of human Fc …); assay: cell-based or functional assay; remark: listed apart in the source
[5] = biological target: T1, hFc-hFasL (fusion protein of human Fc …); assay: cell-based or functional assay; remark: listed apart in the source
[6] = biological target: T1, hFc-hFasL (fusion protein of human Fc …); assay: ELISA, hFc-hFasL coated, sample titrated (detection for this reference not separately stated)
[7] = biological target: T1, hFc-hFasL (fusion protein of human Fc …); assay: cell-based or functional assay; remark: listed apart in the source
[8] = biological target: T1, hFc-hFasL (fusion protein of human Fc …); assay: ELISA, hFc-hFasL coated, antibody titrated, anti-human kappa-HRP
[9] = biological target: T1, hFc-hFasL (fusion protein of human Fc …); assay: ELISA, hFc-hFasL coated, antibody titrated, anti-human kappa-HRP (protocol of Example 3.2)
[10] = biological target: T1, hFc-hFasL (fusion protein of human Fc …); assay: cell-based or functional assay; remark: listed apart in the source
[11] = biological target: T1, hFc-hFasL (fusion protein of human Fc …); assay: cell-based or functional assay; remark: listed apart in the source

EC50(nM), FasL antigen-induced NF-κB signaling pathway activation (SEAP, HepG2-Dual) [3] [nM]	IC50(nM), FasL antigen-induced apoptosis of Jurkat cells (CellTiter-Glo ATP) [4] [nM]	IC50(nM), FasL antigen-induced apoptosis of HepG2 cells (CellTiter-Glo ATP) [5] [nM]	EC50 [8] [nM]	EC50 [9] [nM]	HepG2 IC50(nM), FasL antigen-induced cell apoptosis [10] [nM]	Jurkat IC50(nM), FasL antigen-induced cell apoptosis [10] [nM]	EC50(nM), FasL antigen-induced NF-κB signaling pathway activation [11] [nM]	Molecule	also measured
3.01	0.023	0.016	0.811					FL-M78 (antibody, V domains shown, Chimeric full-length antibody, tested as human IgG4 / human kappa) VH: DVQLQESGGGLVQPGGSRKLSCAASGFTFSSYDMSWVRQTPEKRLEWVAFISSGGGSTYYPDTVKGRFTISRDNAKNTLYLQMSSLKSEDSAMYYCGRHYDNYLYAMDYWGQGTSVTVSS VL: DIVMTQSPASQSASLGESVTITCLASQTIGTWLAWYQQKPGKSPQLLIYAATSLADGVPSRFSGSGSGTKFSFKISSLQAEDFVSYYCQQLYSTPFTFGGGTKLEIK	
1.33	0.023	0.021	0.441					FL-M89 (antibody, V domains shown, Chimeric full-length antibody, tested as human IgG4 / human kappa) VH: EVQLQQSGAELVRPGVSVKISCKGSGYTFTDYTIHWVKQSHAKSLEWIGVISTYQGDASYNQKFKGKATMTVDKSSSTAYMELARLTSEDSAIYYCARFPDWDYAMDYWGQGTSVTVSS VL: DIVMTQSPASLAVSLGQRATISCKASQSVDYDGDSYMNWYQQKPGQPPKLLIYAASNLESGIPARFSGSGSGTDFTLNIHPVEEEDAATYYCQQSRELPYTFGGGTKLEIK	
				0.265	0.0125	0.0193	0.454	humFL-M88-1 (antibody, human IgG4, V domains shown, Humanized FL-M88) VH: QVQLVQSGAEVKKPGASVKVSCKGSGYTFTDYTIHWVRQAPGQGLEWIGVISTYQGDASYNQKFKGRATMTVDKSTSTAYMELSSLRSEDTAVYYCARFPDWDYAMDYWGQGTLVTVSS VL: EIVMTQSPATLSVSPGERATLSCKASQSVDYDGDSYMNWYQQKPGQPPRLLIYAASNLESGIPARFSGSGSGTEFTLTISSLQSEDFAVYYCQHSRELPYTFGQGTKLEIK	
				0.301	0.0143	0.0149	0.47	humFL-M88-15 (antibody, human IgG4, V domains shown, Humanized FL-M88) VH: QVQLVQSGAEVKKPGASVKVSCKGSGYTFTDYTIHWVRQAPGQGLEWMGVISTYQGDASYNQKFKGRATMTVDKSTSTAYMELSSLRSEDTAVYYCARFPDWDYAMDYWGQGTLVTVSS VL: EIVMTQSPATLSVSPGERATLSCKASQSVDYDGDSYMNWYQQKPGQPPRLLIYAASNLESGIPARFSGSGSGTEFTLTISSLQSEDFAVYYCQQSRELPYTFGQGTKLEIK	
				0.302	0.0126	0.0243	0.698	humFL-M88-13 (antibody, human IgG4, V domains shown, Humanized FL-M88) VH: QVQLVQSGAEVKKPGASVKVSCKGSGYTFTDYTIHWVRQAPGQGLEWIGVISTYQGDASYNQKFKGRATMTVDKSTSTAYMELSSLRSEDTAVYYCARFPDWDYAMDYWGQGTLVTVSS VL: EIVMTQSPATLSVSPGERATLSCKASQSVDYDGDSYMNWYQQKPGQPPRLLIYAASNLESGIPARFSGSGSGTEFTLTISSLQSEDFAVYYCQQSRELPYTFGQGTKLEIK	
				0.273	0.0276	0.0192	0.444	humFL-M88-3 (antibody, human IgG4, V domains shown, Humanized FL-M88) VH: QVQLVQSGAEVKKPGASVKVSCKGSGYTFTDYTIHWVRQAPGQGLEWMGVISTYQGDASYNQKFKGRATMTVDKSTSTAYMELSSLRSEDTAVYYCARFPDWDYAMDYWGQGTLVTVSS VL: EIVMTQSPATLSVSPGERATLSCKASQSVDYDGDSYMNWYQQKPGQPPRLLIYAASNLESGIPARFSGSGSGTEFTLTISSLQSEDFAVYYCQHSRELPYTFGQGTKLEIK	

Continued, molecule first:

Molecule	EC50(nM), FasL antigen-induced NF-κB signaling pathway activation (SEAP, HepG2-Dual) [3] [nM]	IC50(nM), FasL antigen-induced apoptosis of Jurkat cells (CellTiter-Glo ATP) [4] [nM]	IC50(nM), FasL antigen-induced apoptosis of HepG2 cells (CellTiter-Glo ATP) [5] [nM]	EC50 [8] [nM]	EC50 [9] [nM]	HepG2 IC50(nM), FasL antigen-induced cell apoptosis [10] [nM]	Jurkat IC50(nM), FasL antigen-induced cell apoptosis [10] [nM]	EC50(nM), FasL antigen-induced NF-κB signaling pathway activation [11] [nM]	also measured
MAB126-100 (commercial anti-FasL antibody, RD)									HepG2 IC50(nM), FasL antigen-induced cell apoptosis [1]: 0.074 nM; IC50(nM), FasL antigen-induced apoptosis of HepG2 cells (CellTiter-Glo ATP) [1]: 0.099 nM; Jurkat IC50(nM), FasL antigen-induced cell apoptosis [1]: 0.046 nM; EC50 [2]: 0.948 nM
APG101 (Fas fusion protein, Apogenix) (Fc fusion, UniProt P25445 26-172, looked up, also called Fas-Fc fusion protein APG101; FasL antagonist APG101; not shown: Fc part of APG101) QVTDINSKGLELRKTVTTVETQNLEGLHHDGQFCHKPCPPGERKARDCTVNGDEPDCVPCQEGKEYTDKAHFSSKCRRCRLCDEGHGLEVEINCTRTQNTKCRCKPNFFCNSTVCEHCDPCTKCEHGIIKECTLTSNTKCKEEGSRS	7.23	> 100	11.3						EC50 [6]: 23.5 nM
FL-M54 (antibody, V domains shown, Chimeric full-length antibody, tested as human IgG4 / human kappa) VH: EVQLQQSGVELVKPGASVKLSCKASGYTFTRFDISWVRQRPEQGLEWIGWIFPGDGSSQYNENFKGKATLTTDKSSGTAYMQLNRLTSEDSAVYFCARSLISTAMFDHWGQGTTLTVSS VL: DIVMTQSPASLAVSLGQRATISCRASKSVSTSDFSYIHWYQQKPGQPPKLLIFLASHLESGVPARFSGSGSGTDFTLNIHPVEEEDAATYYCQHSRELPRTFGGGTKLEIK	1.97	0.018	0.018	0.725					HepG2 IC50(nM), FasL antigen-induced cell apoptosis [7]: 0.023 nM; Jurkat IC50(nM), FasL antigen-induced cell apoptosis [7]: 0.023 nM
FL-M56 (antibody, V domains shown, Chimeric full-length antibody, tested as human IgG4 / human kappa) VH: EVQLQQSGPELVKPGASVKLSCKASGYTFTRFDISWVRQRPEQGLEWIGWIFPGDGSTQYNENFKGKATLTTDKSSGTAYMQLNRLTSEDSAVYFCARSLISTAMFDHWGQGTTLTVSS VL: DIVLTQSPASLAVSLGQRATISCRASKSVSTSDFSYIHWYQQKPGLPPKLLIFLASHLESGVPARFSGSGSGTDFTLNIHPVEEEDAATYYCQHSRELPRTFGGGTKLEIK	2.73	0.02	0.02	0.661					
FL-M05 (antibody, V domains shown, Chimeric full-length antibody, tested as human IgG4 / human kappa) VH: EVQLQQSGAELVRPGVSVKISCKGSGYTFTDYTMHWVKQSHAKSLEWIGVISTYQGDARYNQKFKGKATMTVDKSSSTAYMELARLTSEDSAIYYCARFPDWDYAMDYWGQGTSVTVSS VL: DIVLTQSPASLAVSLGQRATISCKASQSVDYDGDSYMNWYQQKPGQPPKLLIYAASNLESGIPARFSGSGSGTDFTLNIHPVEEEDAATYYCQHSRELPYTFGGGTKLEIK	1.13	0.109	0.03	0.186					
FL-M08 (antibody, V domains shown, Chimeric full-length antibody, tested as human IgG4 / human kappa) VH: QIQLLQSGAELVRPGVSVKISCKGSGYTFTDYAMHWVKQSHAKSLEWIGVISTYQGDANYNQKFKGKATMTVDKSSSTAYMELARLTSEDSAIYYCARFPDWDYAMDYWGQGTSVTVSS VL: EIVLTQSPASLAVSLGQRATISCKASQSVDYDGDSYMNWYQQKPGQPPKLLIYAASNLESGIPARFSGSGSGTDFTLNIHPVEEEDAATYYCQHSRELPYTFGGGTKLEIK	0.704	0.035	0.016	0.157					
